Patent US20250213666A1 (UNIVERSITY OF CINCINNATI, published 2025)

Molecular target: T1, Intimin-spike fusion protein (Intimin-Spike-RBD) surface displayed on E. coli Nissle 1917 (SARS-CoV-2)
T1 construct: also called pInt-spike; pInt-Spike-RBD
Assay: cell aggregation assay (OD600) of nanobody-bearing EcN with spike-bearing EcN

B1: Lpp-OmpA-VHH72 nanobody (pLpp-OmpA-VHH72), surface displayed on E. coli Nissle 1917 or on its OMVs (VHH)
chain: CSSNAKIDQGINNNGPTHENQLGAGAFGGYQVNPYVGFEMGYDWLGRMPYKGSVENGAYKAQGVQLTAKLGYPITDDLDIYTRLGGMVWRADTKSNVYGKNHDTGVSPVFAGGVEYAITPEIATRKLENLYFQGTRQVQLQESGGGLVQAGGSLRLSCAASGRTFSEYAMGWFRQAPGKEREFVATISWSGGSTYYTDSVKGRFTISRDNAKNTVYLQMNSLKPDDTAVYYCAAAGLGTVVSEWDYDYDYWGQGTQVTVSSGSGSENLYFQGDYKDDDDKWSHPQFEKSR
notes: also called pLpp-OmpA-VHH72 Nb; Lpp-OmpA-VHH72 Nb
  binding result: no binding
